A short description of this data set: amyloid nucleation score (Sup35N fusion, yeast selection) (log enrichment); library NNK3; higher = more nucleation; inactive = no reads after selection. The method, boiled down:
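In psi-negative yeast, Sup35N fusions carrying peptides of 20 random codons were induced with 100 μM copper sulfate for 24 hours. The cells then grew 7 days at 30°C on medium lacking adenine and uracil, and plasmid inserts from input and output were Illumina-sequenced, excluding sequences with under 100 input reads. Nucleation score is the DiMSum log enrichment of output over input reads, centred on the mode score of non-aggregating sequences.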

± gives the uncertainty stated by the source.

As to ATCWTLGNDVRFGMRAFTFV, the amyloid nucleation score entry is “inactive”.
As for VTKAWMCYYLLLYVWDEGRA, the entry is “inactive”.
For VRSPPVPLNCVE the value was “inactive”.
As for YTWLVTVTDDGCRFEFSCEF, the entry is “inactive”; as for VCQESPSEIGES, “inactive”.
Consider GQFCCVCARIKLCRYSFNCY, for which the amyloid nucleation score is 2.45 ± 0.082.
YQNVMWLC: the amyloid nucleation score entry is “inactive”.
For YSHNLWLA the value was “inactive”.
For SGISFTCMRHEMVSLTGGL the value was “inactive”.
As for YCQESRSCWAQSYICEGVSL, the figure is -0.253 ± 1.1; as for PVSLNDIYIIKCANKNYEVI, “inactive”.
Take YGLIRYPLFIFSALVTT: the amyloid nucleation score result was “inactive”.
As for LLRVNSEAGESCQVSFTFNM, the figure is 1.73 ± 0.093; as for FSIVELTLSRLK, “inactive”; as for NMFSGVG, “inactive”.
As for LRIKMGIYAHDLCAVIMYTL, the figure is 0.515 ± 0.35; as for DSSSLRSNVLVTVCVLVSSI, 0.375 ± 0.22.
For VIDEYQSVICGYLIRGWHAS the value was 1.79 ± 0.088; for LCLMDRGYVS, -0.779 ± 1.4; for ILLIINFG, 2.21 ± 0.065.
For the substance TGVRMWFVG, the amyloid nucleation score entry is “inactive”.
Consider VKVVNTSCPMDGLPNCLTRR, for which the amyloid nucleation score result is “inactive”.
As for SFFTYRPQMMRCLSAIYTRM, the entry is “inactive”; as for NMRGEFQTLANWVWLLQRVL, “inactive”.
With NFVRRHWRWRGMSFSLVNSY, the amyloid nucleation score entry was “inactive”.
Take FCLVFSELILFCVCSWVNST: the amyloid nucleation score result is “inactive”.
For the substance TYYTGQLNVTEVVFLYISGS, the amyloid nucleation score came out at 1.96 ± 0.069.
PDEAVGV registered an amyloid nucleation score of -1.19 ± 2.5.
For FHGKNVF the value was “inactive”; for FYLALIYNICFADRKLVGVC, “inactive”; for PIRWYRRSLFLCWLTDDRLG, “inactive”.
As for GLALNWLCG, the figure is 0.026 ± 0.43.
As for SCLHSSSFCKR, the entry is “inactive”.
With YERWKLVHHGKNMYEGVYRL, the amyloid nucleation score entry is “inactive”.
For SCLHHFMEDSEPMNMGRVVK the value was “inactive”; for MWKDLVVCL, 0.175 ± 0.88; for TYSRFEISCMCWASYTIK, 0.775 ± 0.22.
For LGVYYVNNRYFADFKGVEHG the value was 0.154 ± 0.67.
Consider MILFKIEELHCQHVSHCG, for which the amyloid nucleation score result was “inactive”.
As for ENLSEVWLSYVDSLSIYVLS, the entry is “inactive”; as for LCMMMPRIIQFICHSYEHVD, “inactive”.
For AFISSKARTYKIRMMPVPTS the value was “inactive”.
Consider PEMSSSGAKAKYPTSMTS, for which the amyloid nucleation score result was “inactive”.
For CVNLRNIRFSTLRGMGGWI the value was “inactive”; for YRNCLLRDMSWVVDFIDIKT, “inactive”.
As for QLTNRKCR, the figure is -0.8 ± 2.5; as for SKRFAIAEQVCNSF, “inactive”.
As for NHLSPMRTKLYLKETNPSSA, the entry is “inactive”; as for CNWMIPASSP, “inactive”.
RLIYLWVPYCNMCRCGLLCK: the amyloid nucleation score result is “inactive”.
On to PFYFCGHSQYSWTAW, for which the amyloid nucleation score entry was “inactive”.
As for YYVFVYLYSCVCFTGTGKSV, the entry is “inactive”.
For HVSSKASLLPMYRY the value was 0.237 ± 0.75.
For HYLWCVYII the value was “inactive”; for PFTPFSHVR, “inactive”.
Turning to FTYAC, the amyloid nucleation score entry is “inactive”.
Substance KICWYELNLDNSLVLLGRRY came in with an amyloid nucleation score of 1.78 ± 0.084.
As for VGLNQSLNRWPTSSSQHMGG, the entry is “inactive”; as for RFYLDLEQQHLEIVGESR, “inactive”.
For ELAFMNYYNNECSRPLLSSP, the amyloid nucleation score entry is “inactive”.
Turning to LWAIMFRYSDIAKLTGWRVV, the amyloid nucleation score is -0.069 ± 0.82.
As to AGCAIALLYGWESLRAVFL, the amyloid nucleation score result is “inactive”.
For NSPTYYPHSFLMTYKALSFT the value was “inactive”; for LSGDLVCRKVFTRRCTSKWL, “inactive”.
As for MLLSVRRGSLWESRPRTWLM, the figure is 0.535 ± 0.22; as for GFTVG, “inactive”.
For SNRVRMSFLLADVYCNQTEV the value was -0.183 ± 0.42; for DEFEMLLEGWVSVVGMMTRE, “inactive”; for IGKKVCMCRDKGGLIGLRGG, “inactive”.
Take VASVIL: the amyloid nucleation score entry is “inactive”.
As for FTDLTVNPNYNFYMCSLNRL, the amyloid nucleation score turned out to be 2.72 ± 0.054.
For ITNYLWGGKGHRNKVLSNSC the value was “inactive”; for MHNHMYISKEMLYNERTLSI, “inactive”; for YGGMVN, “inactive”.
For LYEDYISSSMSMLLRLLSSY the value was “inactive”.
For MFYMIFIVYQSWLKNASYLC the value was “inactive”; for AFLSLCKLDYSYANCLVIVV, “inactive”; for FHVVFCDID, “inactive”.
As to FMSFYVLLSSTMVTQFAMGP, the amyloid nucleation score entry was “inactive”.
Substance IQSAMSLIVIYHGK returned an amyloid nucleation score of 2.69 ± 0.076.
As for CVQLKSTSHVYYFRDQVGLD, the figure is 1.41 ± 0.087.
For VYFMCVQHWLVSGHPDPLNE the value was -0.246 ± 0.69; for ALLTFILVLIVEVVNWRKVC, 0.961 ± 0.23; for GWRSTYYECSGKSVFNAG, -0.217 ± 0.8.
As for MDSPTGLALDG, the entry is “inactive”; as for HQTRIMPGLLGKRAFIRVRL, “inactive”.
Turning to IVNLL, the amyloid nucleation score result is “inactive”.
For KWWCHLWVIGVGFALGLYTG the value was “inactive”.
As for NDASVLRNSPELSESFRGKW, the entry is “inactive”; as for INPLLR, 0.744 ± 0.2.
In turn, LVSVVYLEGTGGDYDFFIAT displayed an amyloid nucleation score of 2.01 ± 0.079.
As for NGNNLIRVFVWYYDNS, the figure is 2.99 ± 0.08; as for NSIIGTVDGKSGSNRVRSP, “inactive”; as for SPLSVGEHSEMWLRLVFG, “inactive”.
As for YEIHWSRRKGMWFEYYTFHF, the entry is “inactive”.
As for ITSGFDVEKCGNVNLSWEVW, the entry is “inactive”; as for YCLVV, “inactive”; as for HMFSGVG, “inactive”.

Values taken from the supplement of paper PMC12042874.
